Test results reported in the RNAGym collection of RNA variant scans (doi:10.1073/pnas.2313332121).

B1: TPR t1 (parent)
chain: GACCAAUCUGCCCUCAGAGCUCGAGAACAUCUUCGGAUGCAGAGGAGGCAGGCUUCGGUGGCGCGAUAGCGCCAACGUCCUCAACCUCCAAUGCAUCCCACCACAUGAUGAUGCCUGAAGAGCCUUGGUUUUUUG

Variants of: B1
Test: polymerase ribozyme fitness, log enrichment relative to wild type (log ratio); higher = more active; in vitro selection for triplet polymerase activity
How it was run: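 Fitness measures genotype enrichment against wild-type enrichment on a logarithmic scale, with inverse-variance-weighted averaging of replicates. The logarithm is base 2, and genotypes were kept only with ≥10 input reads and ≥1 read per output in Illumina sequencing. The sequenced libraries came from one triplicate in vitro selection round, including frozen incubation at −7 °C, of PCR-built, transcribed mutant libraries of each subunit of a heterodimeric triplet polymerase ribozyme.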

Variant	polymerase ribozyme fitness (log ratio)
A43G C64U	-1.23
A43G C72G U132A G135C	-2.2
A43G C72U C94G C101U U116G	-4.87
A43G C73G A75C U112A	-3.33
A43G C76U U109G	-6.79
A43G C102A	-4.25
A43G C114G	-3.66
A43G G47U	-3.37
A43G G48A G63A U78C U112C G127U	-3.79
A43G G57U C73U A90U C102U	-4.93
A43G G61A	-1.27
A43G G61U	-1.45
A43G G69C A90C C124G	-0.889
A43G G77A A83C C88G A121U G128U	-5.57
A43G G93C G120A	-2.35
A43G G113C	-3
A43G G113U	-2.72
A43G U112C G122U	-0.183
A43G U130C	-1.1
A43U A46U C97U	-3.34
A43U A50U G60A U112A	-4.39
A43U A111G	-0.575
A43U A121C	0.506
A43U A121U	1.26

Variant	polymerase ribozyme fitness (log ratio)
A43U C49A C114G	-1.78
A43U C49G U78A C115A	-3.44
A43U C53A C62A G93A U112C G128U	-4.57
A43U C53G	-1.38
A43U C53U A75G C88A U92C	-3.05
A43U C56G	-1.4
A43U C56G C79G	-4.99
A43U C62A	-2.39
A43U C62G	-3.88
A43U C70G	-4.41
A43U C76A	-2.98
A43U C97A	-7.59
A43U C124A	0.127
A43U G44U	-1.67
A43U G45A C56U C62U U92A	-4.61
A43U G48A C56U	-1.58
A43U G52U A68G C124U	-5.64
A43U G58U G113A	-2.63
A43U G60C C76G U78A G113C U125A	-4.6
A43U G61U G93U	-1.76
A43U G63A A103U G117C U131A	-6.74
A43U G63C A100U C124G	-2.24
A43U G69C	-2.32
A43U G71A A91G	-3.35

Variant	polymerase ribozyme fitness (log ratio)
A43U G71A C115U	-3.62
A43U G71U	-1.89
A43U G71U A91G	-2.96
A43U G77A G120A U134G	-0.215
A43U G77C U78A C79U G120U U131C	-1.51
A43U G93C G117C	-4.65
A43U G93U	-2.7
A43U G110U	-3.52
A43U U55C U92C	-2.54
A43U U59G U96A A105U A121C	-4.79
A43U U87G	-1.43
A43U U92G	-1.81
A43U U92G C124U	-0.53
A43U U96C C101A G122A G127A	-5.79
A43U U106A A118U	-1.2
G44A A46U G93U C104U	-2.25
G44A A50U G60U U132C	-2.38
G44A A68G U112A	-3.21
G44A A90G C104U	-0.158
G44A A100C G110A	-4.23
G44A A105G	-4.47
G44A A119G C123A	0.608
G44A C49U U54G C70A U112G	-6.09
G44A C49U U78G C101A	-3.78

Variant	polymerase ribozyme fitness (log ratio)
G44A C56A	-1.33
G44A C56U	-0.878
G44A C56U C72U	-2.35
G44A C70A C89A	-4.72
G44A C70U	-1.67
G44A C70U A103U G117U	-5.43
G44A C72A U78C A119G	0.491
G44A C76A C123G	0.122
G44A C80A	-3.93
G44A C88A	-1.02
G44A C89A	-1.04
G44A C89G C115A C124A U129A	-1.46
G44A C98U C104U U116C	-4.16
G44A C102U	-4.04
G44A C104U	-0.855
G44A G45U G77A U129C	-3.02
G44A G48C A74U	-2.22
G44A G48U C53A G60U	-1.14
G44A G52U U87A	-2.35
G44A G60A A74U	-0.926
G44A G60A C89G C101A C104U	-2.79
G44A G60A U106G U112A	-1.83
G44A G60U	-0.542
G44A G63A A84U	-2.6

Variant	polymerase ribozyme fitness (log ratio)
G44A G69A C89A C124G	-3.8
G44A G69C C102A G122A	-5.57
G44A G71A C73A	-2.85
G44A G77C	-0.688
G44A G77C U78A G93A	-1.9
G44A G110A	-2.08
G44A U87G U129G	-1.42
G44A U96G U116A	-5.13
G44C A46U C86U	-2.43
G44C A83U	-0.396
G44C A95C	-2.1
G44C A95U G110A	-2.88
G44C C49U C88A C124U	-1.53
G44C C49U C114U	-3.24
G44C C53G G61A	-0.806
G44C C70A	-2.37
G44C C70A U96A	-3.81
G44C C80U C88A	-2.94
G44C C85U U92A C124U U133C	-1.63
G44C C86U U96G U129C	-2.63
G44C C89U	-1.15
G44C C98U U126C	-3.05
G44C G47U	-1.8
G44C G47U C53A C76G C102G G110C	-7.23

Variant	polymerase ribozyme fitness (log ratio)
G44C G48A	-0.967
G44C G60U	-0.287
G44C G60U U116C C124A	-0.335
G44C G61A A66G A75G	-2.01
G44C G61A C80A	-4.34
G44C G63U	-1.98
G44C G71C A84C	-2.61
G44C G77U C86A	-4.13
G44C G113C	-3.05
G44C U54A A105G G117U U129A U133A	-7.26
G44C U55A C70G U126G	-5.73
G44C U55A C70U C88G G117C	-6.75
G44C U59G C80A	-4.66
G44C U112C	0.766
G44U A46U A111C	-3.04
G44U A46U G117U	-4.65
G44U A46U U112C	-0.701
G44U A50C C73U U92C	-2.12
G44U A75U U92C	-1.34
G44U A111U	-4.9
G44U A118U	-0.733
G44U A121G	0.89
G44U C49A A50C C72A	-1.95
G44U C49U U96C A111G	-3.97

Variant	polymerase ribozyme fitness (log ratio)
G44U C53A G69C A105U	-5.22
G44U C56G G61U C89A C94G G122A	-4.78
G44U C62U G63C	-2.59
G44U C70U A111C C124U	-2.44
G44U C70U C72U C79U G122A	-2.61
G44U C72G G120C	-0.514
G44U C72U	-1.36
G44U C72U A121U	0.777
G44U C80U	-1.59
G44U C82G	-1.77
G44U C82U U106G G120A	-0.344
G44U C97A	-6.15
G44U C114A U116G	-4.56
G44U C114G	-3.66
G44U C124A	1.15
G44U G45A U54A C72G	-3.66
G44U G47A G63C G120U U130G	-4.01
G44U G47U U55C	-2.82
G44U G48U G57C C104A	-3.32
G44U G51C	-5.32
G44U G58C	-0.197
G44U G63U	-2.03
G44U G65A	-6.04
